In patent US20050244902A1:

Target: antiserum 98192
Test: RIA, displacement of 125I-proBNP 1-10Tyr tracer from antiserum 98192

| Binder | ratio of median inhibitory dose (ID50) |
| --- | --- |
| LGSPGSASDLETSGLQEQR | 0.0006 |
| PLGSPGSASDLETSGLQEQR [N-terminal truncated fragment of human proBNP 1-21 with the N-terminal histidine removed] | 0.001 |
